# The nanobody polyreactivity screen of Harvey et al. (2022)
# Experiment: yeast display, Sf9 membrane polyspecificity reagent, FACS + sequencing; frameworks hold sequencing errors
# Procedure, shortened: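 After 36–48 hours of galactose induction, yeast (Saccharomyces cerevisiae BJ5465) displaying a synthetic nanobody library were stained at 4 °C for 1 hour with 10% biotinylated, detergent-solubilized Sf9 membrane reagent. Streptavidin microbeads enriched the stained cells before FACS sorting into low and high (top ~1%) gates on anti-HA and streptavidin fluorescence. Each clone's polyreactivity label reflects its gate of origin.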
row,Sequence,polyreactivity (PSR sort gate)
1,QVQLVESGGGLVQAGGSLRLSCAASGRIFVRNAMGWYRQAPGKERELVAAITTGGRTYYADSVKGRFTISRDNAKNTVYVQMNSVKPEDTAVYYCAATGDRKGYKYIYSDTNDYWGQGTQVTVSS,low polyreactivity
2,QVQLVESGGGLVQAGGSLRLSCAASGRIFVRNAMGWYRQAPGKERELVADITNGGSTNYADSVKGRFTISRDNAKNTVYLQMNSLNPEDTAVYYCAADTLGVYDGDYWGQGTQVTVSS,low polyreactivity
3,QVQLVESGGGLVQAGGSLRLSCAASGRIFVRYAMGWYRPAPGKERELVATISSRGGSTYYADSVKGRFTISRDNAKNTVYLQMTSLKPEDTAVYYWAAYVYPWGRDYWGQGTQVTVSS,high polyreactivity
4,QVQLVESGGGLVQAGGSLRLSCAASGRIFVRYAMGWYRQAPGKEREFVAAINYSGGSTYADSVKGRFTISRDNAKNSVFLQMIRLKPEDTAVYYCAADYQGITSSDPYDYWGQGTQVTVSS,low polyreactivity
5,QVQLVESGGGLVQAGGSLRLSCAASGRIFVRYAMGWYRQAPGKERELVAAITTTGDSTYADSVKGRFTISRDNAKNTVYLQMNSLKPEDTAVYYCNAAWPESRFLVYHRYDYWGQGTQVTVSS,low polyreactivity
6,QVQLVESGGGLVQAGGSLRLSCAASGRIFVRYTMGWYRQAPGKERELVAAINSGGRTYYADSVKGRFTISRDNAKNTVYLQMNSLKPEDTAVYYCAADRVYYGQRDYWGQGTQVTVSS,high polyreactivity
7,QVQLVESGGGLVQAGGSLRLSCAASGRIFVTYAMGWYRQAPGKERELVAAITSRGGRTYYADSVKGRFTISRDNAKKTVYLQMNSLKPEDTAVYYCAAYPGPGARYYYWGQGTQVTVSS,high polyreactivity
8,QVQLVESGGGLVQAGGSLRLSCAASGRIFVTYAMGWYRQAPGKERELVASISRSGGRTYYADSVKGRFTISRDNAKNTVYLQMNSLKPEDTAVYYCNADQEGYQQYFYLGSPYDYWGQGTQVTVSS,low polyreactivity
9,QVQLVESGGGLVQAGGSLRLSCAASGRIFVTYAMGWYRQAPGTERELVAAINSSVSSTRYADSVKGRFTMSRDNAKNTVYLQMNSLKPEDTAVYYCAAVYRYVRPIAKDEYWGQGTQVTVSS,low polyreactivity
10,QVQLVESGGGLVQAGGSLRLSCAASGRIFVTYGMGWYRQAPGKERELVAAINWRGGSTYYADSVKGRFTISRDNAKNTVYLQMNSLKPEDTAVYYCNARLYRNRLGYWGQGTQVTVSS,high polyreactivity
11,QVQLVESGGGLVQAGGSLRLSCAASGRIFVVNAMGWYRQAPGKERELVATITRSGGITYYADSVKGRFTISRDNAKNTVYLQMNSLNPEDTAVYYCNADVLFYTYYTRGRFDFDYWGQGTQVTVSS,low polyreactivity
12,QVQLVESGGGLVQAGGSLRLSCAASGRIFVVYAMGWYRQAPGKERELVASISRGGRTYYADSVKGRFTISRDNAKNTVYLQMNSLKPEDTAVYDCAVVVYLKNRDLFDYWGQGTQVTVSS,low polyreactivity
13,QVQLVESGGGLVQAGGSLRLSCAASGRIFVYNAMGWYIQAPGKERELVAAISWSTGRTNYADSVKGRFTISRDNAKNTVYLQMNSLKPDDTAVYYCAAEWAWEYYSFWSEYDYWGQGTQVTVSS,high polyreactivity
14,QVQLVESGGGLVQAGGSLRLSCAASGRIFVYNAMGWYLQAPGKERELVANIDYSGGSTYYADSVKGRFTISRDNAKNTVYLQMNSLKPEDTAVYYCAADGGSTAFDYWGHGTQVTVSS,low polyreactivity
15,QVQLVESGGGLVQAGGSLRLSCAASGRIFVYNAMGWYRQAPGKEREFVAAISWDGASTYYADSVKGRFTISRDNAKNTVYLQMNSLKPEDTAVYYCAASYRRKLNYDYWGQGTQVTVSS,low polyreactivity
16,QVQLVESGGGLVQAGGSLRLSCAASGRIFVYNDMGWYRQAPGKERELVAAISSVGTTYYADSVKGRFTISRDNAKNTVYLQMNSLKPEDTAVYYCAVTRYHSPPRYYYWGQGTQVTVSS,low polyreactivity
17,QVQLVESGGGLVQAGGSLRLSCAASGRIFVYNTMGWYRQAPGKERELVAVISIGGSTKYADSVKGRFTISRDNAKNTVYLQMNSLKPEDTAVYYCNTDLAGLVYIAVDYWGQGTQVTVSS,low polyreactivity
18,QVQLVESGGGLVQAGGSLRLSCAASGRIFVYNVMGWYRQAPGKERELVAAISWGTGSTYADSVKGRFTISRDNAKNTVYLQMHSLKPEDTAVYYCAADSFIPPYDHWGQGTQVTVSS,low polyreactivity
19,QVQLVESGGGLVQAGGSLRLSCAASGRIFVYNVMGWYRQAPGKERELVAAISWGTGSTYADSVKGRFTISRDNAKNTVYLQMNSLKPEDTAVYYCAAPSPRSRAYTYRGDYWGQGTQVTVSS,low polyreactivity
20,QVQLVESGGGLVQAGGSLRLSCAASGRIFVYYAMGWYRQAPGKERELVAAIRWTGGSTYYADSVKGRFTISRDNAKNTVYLQMNSLKPEDTAVYYCATVNRYGHFNYWGQGTQVTVSS,high polyreactivity
21,QVQLVESGGGLVQAGGSLRLSCAASGRIFVYYAMGWYSQAPGKERELVASISYSGASTYYADSVKGRFTISRDNAKNTVYLQMNSLKPEDTAVYYCNTDGDDFFHVIYDYWGQGTQVTVSS,low polyreactivity
22,QVQLVESGGGLVQAGGSLRLSCAASGRIFWDNAMGWYRQAPGKERELVAAIDYRGGNTNYADSVKGRFTISRDNAKNTVYFQMNSLKPEDTAVYYCNAEWAVRYPGYDYWGQGSQVTVSS,low polyreactivity

row,Sequence,polyreactivity (PSR sort gate)
1,QVQLVESGGGLVQAGGSLRLSCAASGRIFWDYGMGWYRQAPGKERELVAVITWGGGSTYYADSVKGRFTISRDNAKNTVYFQMNSLKPEDTAVYYCAKEYHYYYWGQGTQVTVSS,low polyreactivity
2,QVQLVESGGGLVQAGGSLRLSCAASGRIFWEYAMGGYRQAPGKERELVAAITWRVGSTYYADSVKGRFTISRDYAKNTVYLQMNSLKPEDTAVFYCAAARYLSIYNYWGHGTQVTVSS,low polyreactivity
3,QVQLVESGGGLVQAGGSLRLSCAASGRIFWGNAMGWYRQAPGKERELVAAITRSGGSTYYADSVKGRFTISRDNAKNTVYLQMNSLKPEDTAVYYCAARRNYINFRYTLDYYYWGQGTQVTVSS,high polyreactivity
4,QVQLVESGGGLVQAGGSLRLSCAASGRIFWGYAMGWYRQAPGKERELVAAITSGGSTYYADSVKGRFTFSRDNAKNTVYLQMNSLKPEDTAVYYCAAYYVLKLRYGHRYYYWGQGTQVTVSS,high polyreactivity
5,QVQLVESGGGLVQAGGSLRLSCAASGRIFWGYAMGWYRQAPGKERELVAGIRTSGGTTYYADSVKGRFTISRDNAKNTVYLQMNSLKPEDTAVYYCAVVQYTVYNSLYDYWGQGTQVTVSS,low polyreactivity
6,QVQLVESGGGLVQAGGSLRLSCAASGRIFWGYDMGWYRQAPGKEREFVAAISSGGGRKYYADSVKGRFTISRDNAKNTVYLQMNSLKPEDTAVYYCNAELNWYYYIHLDYWGQGTQVTVSS,low polyreactivity
7,QVQLVESGGGLVQAGGSLRLSCAASGRIFWINAMGWYRQAPGKERELVATISSGSTSYADSVKGRFTISRDNAKNTVYLQMNSLKPEDTAVYYCAADFVFRWYSYTGRWYSSYDYWGQGTQVTVSS,low polyreactivity
8,QVQLVESGGGLVQAGGSLRLSCAASGRIFWPNTMGWYRQAPGKERELVATITSTGTRTYYADSVKGRFTISRDNAKNTVYLQMNSLNPEDTAVYYCNARGYYRPDRPTRRNRFDYWGQGTQVTVSS,high polyreactivity
9,QVQLVESGGGLVQAGGSLRLSCAASGRIFWQYAMGWYRQAPGKERELVAAISRSGGSTYYADSVKGRFTISRDNAKNTVYLQMKCLTPEDTAVYYCAARKASGVPGSAGRPEYYYWGQGTQVTVSS,high polyreactivity
10,QVQLVESGGGLVQAGGSLRLSCAASGRIFWRYAMGWYRQAPGQERELVAAISRGGGRTYYADSVKGRFTSSRDNAKNTVYLQMNSLKPEDTAVYYCAARSTQGRFENWGQGTQVTVSS,high polyreactivity
11,QVQLVESGGGLVQAGGSLRLSCAASGRIFWTNAMGWYRQAPGKERELVAGITWRGGSTYYADSVKGRFTISRDNAKNTVYLQMNSLKPEDTAVYYCATRQGWYSGFDYWGQGTQVTVSS,high polyreactivity
12,QVQLVESGGGLVQAGGSLRLSCAASGRIFWVYAMGWYRQAPGKERELVAAISSTGDGTYYADSVKGRFTISRDNAKNTVYLQMNSLKPVDTAVYYCAADFRVARSPLSGGSDYWGQGTQVTVSS,low polyreactivity
13,QVQLVESGGGLVQAGGSLRLSCAASGRIFWVYAMGWYRQAPGKERELVAAISTRGGSTYYADSVKGRFTISRDNAKNRVYLQKNRLKPDDTAVYYCAADYDDKYDYWGQGTQVTVSS,low polyreactivity
14,QVQLVESGGGLVQAGGSLRLSCAASGRIFWWNTMGWYRQAPGKERELVASITGSGGRTSYADSVKGRFTISRDNAKNTVYLQMNSLKPEDTAVYYCAKEHVSKWSYPYYYWGQGTQVTVSS,high polyreactivity
15,QVQLVESGGGLVQAGGSLRLSCAASGRIFWYYAMGWYRQAPGKERELVAAITRSGASTYYADSVKGRFTISRDNAKNTVYLQMNSLKPEDTAVYYCAARGRWNVPARRDYWGQGTQVTVSS,high polyreactivity
16,QVQLVESGGGLVQAGGSLRLSCAASGRIFWYYAMGWYRQAPGKEWELVARISSSGGSTYYADSVKGRFTISRDNAKNTVYLQMNSLKPEDTAVYYCAKERYSGSSRYPMDYWGQGTQVTVSS,high polyreactivity
17,QVQLVESGGGLVQAGGSLRLSCAASGRIFWYYDMGWYRPAPGKERELVAAISQRGGSTYYADSVKGRFTISRDNAKNTVYLQMNSLKPEDTAVYYCAAYSRYLGPTHHIKYDYWGQGTQVTVSS,high polyreactivity
18,QVQLVESGGGLVQAGGSLRLSCAASGRIFYANAMGWYRQAPGKEWEFVASITYGGGSTYYADSVKGRFTISRDNAKNTVYLQMNSLKPEDTAVYYCAAGYYAQYEDYIRYDYWGQGTQVTVSS,low polyreactivity
19,QVQLVESGGGLVQAGGSLRLSCAASGRIFYAYALGWYRQATGIERELVAAISRRGGSTYYADSVKGRFTISRDNAKNTVYLQMNSLKPEDTAVYYCAADRQFSYVYYIDPTAYEYCGQGTQVTVSS,high polyreactivity
20,QVQLVESGGGLVQAGGSLRLSCAASGRIFYAYAMGWYRQAPGKEREFVAAISWGGGSTNYADSVKGRFTISRDNAKNTVYLQMNSLKPEDTAVYYCATGFYYYLTKTIPYEYEYWGQGTQVTVSS,low polyreactivity
21,QVQLVESGGGLVQAGGSLRLSCAASGRIFYAYAMGWYRQAPGKERELVAAISYIAGITYYADSVKGRFTISRDNAKNTVYLQMNSLIPEDTAVYYCAADDMVTGPLDFWGQGTQVTVSS,low polyreactivity
